Source: US20170355766A1 (Xencor, published 2017)
Residue numbers refer to the chain shown, from its start. Names and notes keep the numbering of the source.

T1: human FcγRIIb on the cell surface (HEK293T cells transfected with human FcγRIIb cDNA; primary human B cells) (human, UniProt P31994 43-310)
T1 chain: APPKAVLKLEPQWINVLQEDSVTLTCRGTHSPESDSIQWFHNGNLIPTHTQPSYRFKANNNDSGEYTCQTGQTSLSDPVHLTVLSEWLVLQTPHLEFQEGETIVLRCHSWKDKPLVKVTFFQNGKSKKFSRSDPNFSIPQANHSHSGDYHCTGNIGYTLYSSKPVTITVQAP

T2: human H131 FcγRIIa receptor protein (6xHis and GST tags) (human, UniProt P12318 34-217, limits assumed)
T2 construct: also called HIIa
T2 sequence (looked up): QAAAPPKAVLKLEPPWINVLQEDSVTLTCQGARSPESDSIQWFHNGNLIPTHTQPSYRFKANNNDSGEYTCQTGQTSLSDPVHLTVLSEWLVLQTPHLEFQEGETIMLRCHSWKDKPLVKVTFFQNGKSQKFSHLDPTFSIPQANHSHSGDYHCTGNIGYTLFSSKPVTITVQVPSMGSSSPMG

T3: FcγRIIaR (human, UniProt P12318)
T3 construct: recombinant receptor protein with 6xHis and GST tags; also called R131 FcγRIIa
T3 sequence (receptor, looked up): T2 sequence (looked up) with H134R

T4: human FcγRIIb receptor protein (R&D Systems) (human, UniProt P31994 46-217)
T4 construct: Analyte injected over antibodies captured on a protein A/G chip (Biacore); also called CD32b
T4 sequence (looked up): T1 chain

B1: anti-CD19 antibody HuAM4G7 IgG1 Fc variant S267E (antibody)
heavy: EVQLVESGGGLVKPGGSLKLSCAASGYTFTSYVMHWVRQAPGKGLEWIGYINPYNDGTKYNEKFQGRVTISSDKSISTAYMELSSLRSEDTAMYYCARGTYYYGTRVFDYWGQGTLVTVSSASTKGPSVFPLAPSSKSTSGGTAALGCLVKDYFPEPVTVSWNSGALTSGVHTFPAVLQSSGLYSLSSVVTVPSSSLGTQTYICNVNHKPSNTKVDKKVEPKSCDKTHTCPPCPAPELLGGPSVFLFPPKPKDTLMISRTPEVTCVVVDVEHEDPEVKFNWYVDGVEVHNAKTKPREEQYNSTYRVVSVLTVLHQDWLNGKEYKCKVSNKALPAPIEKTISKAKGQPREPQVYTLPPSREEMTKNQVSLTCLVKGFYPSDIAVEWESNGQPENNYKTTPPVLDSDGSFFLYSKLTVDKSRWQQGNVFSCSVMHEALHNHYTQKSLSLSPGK
light: DIVMTQSPATLSLSPGERATLSCRSSKSLQNVNGNTYLYWFQQKPGQSPQLLIYRMSNLNSGVPDRFSGSGSGTEFTLTISSLEPEDFAVYYCMQHLEYPITFGAGTKLEIKRTVAAPSVFIFPPSDEQLKSGTASVVCLLNNFYPREAKVQWKVDNALQSGNSQESVTEQDSKDSTYSLSSTLTLSKADYEKHKVYACEVTHQGLSSPVTKSFNRGEC
notes: Positions are EU numbers, not positions on the UniProt entry; copies: 2 + 2
B2: anti-CD19 WT IgG1 antibody (HuAM4G7 Fv, native human IgG1 Fc) (antibody)
heavy: not shown
light: B1 light
notes: Parent of the Fc variants; also called anti-CD19-IgG1; anti-CD19 IgG1 WT; copies: 2 + 2
B3: ^236R/L328R (antibody, human IgG1, kappa)
heavy: EVQLVESGGGLVKPGGSLKLSCAASGYTFTSYVMHWVRQAPGKGLEWIGYINPYNDGTKYNEKFQGRVTISSDKSISTAYMELSSLRSEDTAMYYCARGTYYYGTRVFDYWGQGTLVTVSSASTKGPSVFPLAPSSKSTSGGTAALGCLVKDYFPEPVTVSWNSGALTSGVHTFPAVLQSSGLYSLSSVVTVPSSSLGTQTYICNVNHKPSNTKVDKKVEPKSCDKTHTCPPCPAPELLGRGPSVFLFPPKPKDTLMISRTPEVTCVVVDVSHEDPEVKFNWYVDGVEVHNAKTKPREEQYNSTYRVVSVLTVLHQDWLNGKEYKCKVSNKARPAPIEKTISKAKGQPREPQVYTLPPSREEMTKNQVSLTCLVKGFYPSDIAVEWESNGQPENNYKTTPPVLDSDGSFFLYSKLTVDKSRWQQGNVFSCSVMHEALHNHYTQKSLSLSPGK
light: B1 light
notes: HuAM4G7 IgG1 Fc variant; also called Fc-KO; FcγR knockout
B4: S239D (antibody, human IgG1, kappa)
heavy: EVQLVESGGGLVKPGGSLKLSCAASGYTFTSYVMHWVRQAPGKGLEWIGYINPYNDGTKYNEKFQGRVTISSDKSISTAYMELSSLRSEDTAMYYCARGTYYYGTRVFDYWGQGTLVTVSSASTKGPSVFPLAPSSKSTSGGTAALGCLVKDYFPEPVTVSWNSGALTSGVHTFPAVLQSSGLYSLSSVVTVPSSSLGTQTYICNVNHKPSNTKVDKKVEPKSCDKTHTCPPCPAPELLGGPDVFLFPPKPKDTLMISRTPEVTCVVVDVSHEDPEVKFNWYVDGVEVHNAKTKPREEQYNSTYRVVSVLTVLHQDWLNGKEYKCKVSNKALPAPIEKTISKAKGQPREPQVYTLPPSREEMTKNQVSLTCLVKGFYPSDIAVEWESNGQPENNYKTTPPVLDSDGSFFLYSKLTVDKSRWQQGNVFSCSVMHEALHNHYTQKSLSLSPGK
light: B1 light
notes: HuAM4G7 IgG1 Fc variant
B5: anti-CD19 antibody HuAM4G7 IgG1 Fc variant L235Y/S267E (antibody)
heavy: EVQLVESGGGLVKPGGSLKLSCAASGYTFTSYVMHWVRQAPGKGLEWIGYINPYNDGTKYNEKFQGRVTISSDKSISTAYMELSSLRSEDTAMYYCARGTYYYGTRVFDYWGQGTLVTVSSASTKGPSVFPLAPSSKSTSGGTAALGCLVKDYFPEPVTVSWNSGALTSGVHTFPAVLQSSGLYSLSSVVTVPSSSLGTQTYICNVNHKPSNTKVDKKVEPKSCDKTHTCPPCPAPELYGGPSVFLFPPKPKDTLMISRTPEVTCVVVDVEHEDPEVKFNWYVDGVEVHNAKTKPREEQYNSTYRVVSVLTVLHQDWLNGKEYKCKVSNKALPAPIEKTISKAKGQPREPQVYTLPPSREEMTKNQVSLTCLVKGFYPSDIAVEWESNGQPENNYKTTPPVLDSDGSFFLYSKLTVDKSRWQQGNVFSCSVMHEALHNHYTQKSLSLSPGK
light: B1 light
notes: as for B1
B6: G236R/L328R (antibody, human IgG1, kappa)
heavy: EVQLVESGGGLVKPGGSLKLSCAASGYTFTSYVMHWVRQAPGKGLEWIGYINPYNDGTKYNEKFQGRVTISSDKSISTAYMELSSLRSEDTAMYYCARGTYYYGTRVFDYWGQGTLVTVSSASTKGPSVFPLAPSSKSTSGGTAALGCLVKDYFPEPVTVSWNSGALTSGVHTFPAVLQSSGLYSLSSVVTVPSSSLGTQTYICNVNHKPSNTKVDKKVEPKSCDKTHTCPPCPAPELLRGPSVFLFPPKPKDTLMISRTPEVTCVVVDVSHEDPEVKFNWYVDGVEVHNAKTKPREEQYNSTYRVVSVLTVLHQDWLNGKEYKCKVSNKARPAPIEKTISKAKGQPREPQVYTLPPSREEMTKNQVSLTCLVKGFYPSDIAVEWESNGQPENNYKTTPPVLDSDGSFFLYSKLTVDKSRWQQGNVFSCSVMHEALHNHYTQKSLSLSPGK
light: B1 light
notes: as for B3
B7: V266M/S267E (antibody, human IgG1, kappa)
heavy: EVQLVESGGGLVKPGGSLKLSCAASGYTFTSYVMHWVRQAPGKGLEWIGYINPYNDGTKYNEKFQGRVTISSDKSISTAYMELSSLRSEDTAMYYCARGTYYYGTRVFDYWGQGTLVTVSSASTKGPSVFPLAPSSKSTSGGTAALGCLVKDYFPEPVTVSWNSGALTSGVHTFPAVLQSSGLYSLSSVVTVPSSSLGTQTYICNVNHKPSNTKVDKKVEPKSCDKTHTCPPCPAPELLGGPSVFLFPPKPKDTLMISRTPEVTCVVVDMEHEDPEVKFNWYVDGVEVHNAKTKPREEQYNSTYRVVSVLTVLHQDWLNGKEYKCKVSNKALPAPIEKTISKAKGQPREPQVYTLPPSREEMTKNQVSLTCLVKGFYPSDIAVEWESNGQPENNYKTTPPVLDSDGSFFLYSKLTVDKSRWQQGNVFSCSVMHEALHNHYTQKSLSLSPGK
light: B1 light
notes: HuAM4G7 IgG1 Fc variant
B8: S267E/A327E (antibody, human IgG1, kappa)
heavy: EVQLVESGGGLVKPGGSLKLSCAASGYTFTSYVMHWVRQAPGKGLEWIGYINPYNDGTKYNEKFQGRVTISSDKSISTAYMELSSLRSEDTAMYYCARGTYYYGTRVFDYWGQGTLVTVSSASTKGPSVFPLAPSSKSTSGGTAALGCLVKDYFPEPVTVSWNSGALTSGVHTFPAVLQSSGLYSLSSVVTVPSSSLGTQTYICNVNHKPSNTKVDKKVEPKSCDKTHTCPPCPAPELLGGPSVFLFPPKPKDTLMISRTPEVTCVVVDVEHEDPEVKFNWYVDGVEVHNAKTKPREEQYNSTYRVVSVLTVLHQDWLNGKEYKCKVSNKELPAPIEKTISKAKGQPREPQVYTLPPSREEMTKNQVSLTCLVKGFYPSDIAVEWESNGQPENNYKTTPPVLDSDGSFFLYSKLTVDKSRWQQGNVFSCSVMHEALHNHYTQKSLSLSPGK
light: B1 light
notes: HuAM4G7 IgG1 Fc variant
B9: anti-CD19 antibody HuAM4G7 IgG1 Fc variant S267E/H268E (antibody)
heavy: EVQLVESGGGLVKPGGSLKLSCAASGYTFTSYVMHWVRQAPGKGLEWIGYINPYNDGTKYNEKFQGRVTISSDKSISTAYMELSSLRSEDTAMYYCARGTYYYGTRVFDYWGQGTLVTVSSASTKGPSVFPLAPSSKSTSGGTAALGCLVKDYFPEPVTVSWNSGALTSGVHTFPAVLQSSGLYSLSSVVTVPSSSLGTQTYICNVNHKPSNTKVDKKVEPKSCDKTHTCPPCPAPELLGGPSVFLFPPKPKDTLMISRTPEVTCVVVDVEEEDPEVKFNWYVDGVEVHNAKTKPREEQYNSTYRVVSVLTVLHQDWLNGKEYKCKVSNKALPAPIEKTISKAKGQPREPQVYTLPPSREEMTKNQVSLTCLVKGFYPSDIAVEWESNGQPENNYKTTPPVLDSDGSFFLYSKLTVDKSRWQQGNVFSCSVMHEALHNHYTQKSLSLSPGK
light: B1 light
notes: Positions are EU numbers, not positions on the UniProt entry; also called H268E/S267E; copies: 2 + 2
B10: anti-CD19 antibody S267E/L328F (HuAM4G7 Fv, human IgG1 Fc with S267E/L328F) (antibody)
heavy: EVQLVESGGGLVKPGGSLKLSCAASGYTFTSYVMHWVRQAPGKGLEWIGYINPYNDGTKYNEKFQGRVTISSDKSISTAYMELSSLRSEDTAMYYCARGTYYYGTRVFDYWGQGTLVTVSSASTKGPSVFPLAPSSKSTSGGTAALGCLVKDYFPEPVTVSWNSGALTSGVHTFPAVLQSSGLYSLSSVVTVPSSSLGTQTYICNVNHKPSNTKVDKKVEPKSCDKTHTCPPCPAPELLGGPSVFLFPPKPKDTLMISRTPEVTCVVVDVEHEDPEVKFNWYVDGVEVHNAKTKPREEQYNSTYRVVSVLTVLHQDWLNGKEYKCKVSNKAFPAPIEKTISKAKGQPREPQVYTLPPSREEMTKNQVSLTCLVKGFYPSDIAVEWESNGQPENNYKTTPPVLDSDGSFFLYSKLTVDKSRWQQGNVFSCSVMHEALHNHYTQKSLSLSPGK
light: B1 light
notes: They are treated here as one molecule; also called anti-CD19-S267E/L328F; a-CD19 S267E/L328F; copies: 2 + 2

Target: T1, human FcγRIIb on the cell surface …
Test: flow cytometry on FcγRIIb-transfected HEK293T cells

| EC50 (read off the curve) [ng/mL] | Binder |
| --- | --- |
| ~20 | B1 |

Target: T2, human H131 FcγRIIa receptor protein …
Test: SPR (Biacore)

| Fold FcγRIIaH [fold] | binding result | Binder |
| --- | --- | --- |
| 1 | – | B2 |
| – | no binding | B3 |
| 1.1 | – | B4 |
| 0.941 | – | B5 |
| – | no binding | B6 |

Target: T5, FcγRIIIaF (human, UniProt P08637)
T5 construct: recombinant receptor protein with 6xHis and GST tags; also called F158 FcγRIIIa
Test: SPR (Biacore)

T5 sequence (P08637 17-208 limits assumed): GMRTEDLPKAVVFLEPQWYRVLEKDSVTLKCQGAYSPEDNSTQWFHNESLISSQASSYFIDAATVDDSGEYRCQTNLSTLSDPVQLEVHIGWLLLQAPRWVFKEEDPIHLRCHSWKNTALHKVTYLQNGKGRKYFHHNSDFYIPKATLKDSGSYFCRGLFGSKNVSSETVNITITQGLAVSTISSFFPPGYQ

| binding result | Fold FcγRIIIaF [fold] | Binder |
| --- | --- | --- |
| no binding | – | B3 |
| – | 6.32 | B4 |
| no binding | – | B6 |

Target: T6, human FcγRI receptor protein (R&D Systems) (human, UniProt P12314 16-288)
T6 construct: also called CD64
Test: SPR (Biacore)

T6 sequence (P12314 16-288 limits assumed): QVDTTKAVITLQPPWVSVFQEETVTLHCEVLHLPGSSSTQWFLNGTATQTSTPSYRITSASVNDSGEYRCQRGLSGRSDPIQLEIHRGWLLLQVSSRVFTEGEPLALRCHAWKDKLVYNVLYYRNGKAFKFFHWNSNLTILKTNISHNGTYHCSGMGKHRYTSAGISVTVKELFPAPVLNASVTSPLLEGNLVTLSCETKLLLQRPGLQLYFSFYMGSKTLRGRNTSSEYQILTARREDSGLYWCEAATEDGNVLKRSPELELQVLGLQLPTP

| Fold FcγRI [fold] | binding result | Binder |
| --- | --- | --- |
| 1 | – | B2 |
| – | no binding | B3 |
| 2.81 | – | B1 |
| 1.98 | – | B7 |
| 2.3 | – | B8 |
| 3.53 | – | B4 |
| 0.00347 | – | B5 |
| 3.52 | – | B9 |
| 1.5 | – | B10 |
| – | no binding | B6 |

Target: T3, FcγRIIaR
Test: SPR (Biacore)

| Fold FcγRIIaR [fold] | binding result | Binder |
| --- | --- | --- |
| 1 | – | B2 |
| – | no binding | B3 |
| 29.5 | – | B1 |
| 30.7 | – | B7 |
| 29.3 | – | B8 |
| 3.73 | – | B4 |
| 37.5 | – | B5 |
| 41.7 | – | B9 |
| 275 | – | B10 |
| – | no binding | B6 |

Target: T4, human FcγRIIb receptor protein (R&D …)
Test: SPR (Biacore)

| Fold FcγRIIb [fold] | binding result | Binder |
| --- | --- | --- |
| 1 | – | B2 |
| – | no binding | B3 |
| 20.4 | – | B1 |
| 29.2 | – | B7 |
| 30.9 | – | B8 |
| 3.6 | – | B4 |
| 37.2 | – | B5 |
| 40.6 | – | B9 |
| 242 | – | B10 |
| – | no binding | B6 |

Target: T7, human V158 FcγRIIIa receptor protein (6xHis and GST tags) (human, UniProt P08637 17-208, limits assumed)
T7 construct: also called VIIIa
Test: SPR (Biacore)

T7 sequence (P08637 17-208 F176V limits assumed): as the sequence (P08637 17-208 limits assumed) above, with F160V counted along it

| Fold FcγRIIIaV [fold] | binding result | Binder |
| --- | --- | --- |
| 1 | – | B2 |
| – | no binding | B3 |
| 0.381 | – | B1 |
| 0.0448 | – | B7 |
| 8.14 | – | B4 |
| 3.15 | – | B9 |
| 0.038 | – | B10 |
| – | no binding | B6 |

Target: T1, human FcγRIIb on the cell surface …
Test: flow cytometry on FcγRIIb-transfected HEK293T cells
Remark: another data set of the same source

| EC50 (read off the curve) [ng/mL] | Binder |
| --- | --- |
| ~6 | B5 |

Target: T4, human FcγRIIb receptor protein (R&D …)
Test: Biacore SPR, antibody captured on protein A/G, FcγR injected
Protocol: (§1) Variants were screened for receptor affinity using Biacore™ technology, also referred to as Biacore herein, a surface plasmon resonance (SPR) based technology for studying biomolecular interactions in real time. SPR measurements were performed using a Biacore 3000 instrument (Biacore, Piscataway, N.J.). A protein A/G (Pierce Biotechnology) CM5 biosensor chip (Biacore) was generated using a standard primary amine coupling protocol. All measurements were performed using HBS-EP buffer (10 mM HEPES pH 7.4, 0.15 M NaCl, 3 mM EDTA, 0.005% vol/vol surfactant P20, Biacore). Antibodies at 20 nM or 50 nM in HBS-EP buffer were immobilized on the protein A/G surface and FcγRs were injected. After each cycle, the surface was regenerated by injecting glycine buffer (10 mM, pH 1.5). Data were processed by zeroing time and response before the injection of FcγR and by subtracting appropriate nonspecific signals (response of reference channel and injection of running buffer). Kinetic analyses were performed by global fitting of binding data with a 1:1 Langmuir binding model using BIAevaluation software (Biacore).

| improvement in affinity relative to WT IgG1 | Binder |
| --- | --- |
| > 2 orders of magnitude | B10 |

Target: T1, human FcγRIIb on the cell surface …
Test: flow cytometry on FcγRIIb-transfected HEK293T cells
Remark: another data set of the same source

| EC50 (read off the curve) [ng/mL] | Binder |
| --- | --- |
| ~30 | B1 |
| ~10 | B7 |
| ~10 | B8 |
| ~10 | B9 |

Target: T1, human FcγRIIb on the cell surface …
Test: flow cytometry on HEK293T cells transfected with human FcγRIIb, PE anti-human Fab detection

| fold EC50 relative to WT IgG1 [fold] | Binder |
| --- | --- |
| ~320 | B10 |

Target: T4, human FcγRIIb receptor protein (R&D …)
Test: Biacore SPR ('according to the data herein')
Protocol: as §1

| Kd [nM] | Binder |
| --- | --- |
| ~1500 | B2 |
